B1: 22234 (protein)
chain: MALPVTALLLPLALLLHAARPDIQMTQSPSSLSASVGDRVTITCKASDHINNWLAWYQQKPGQAPKLLIYGATTLETGVPSRFSGSGSGTDYTLTISSLQPEDFATYYCQQSWNTPWTFGQGTKLEIKRLEDLKNVFPPEVAVFEPSEAEISHTQKATLVCLATGFYPDHVELSWWVNGKEVHSGVCTDPQPLKEQPALNDSRYCLSSRLRVSATFWQNPRNHFRCQVQFYGLSENDEWTQDRAKPVTQIVSAEAWGRADCGFTSESYQQGVLSATILYEILLGKATLYAVLVSALVLMAMVKRKDSRGRAKRSGSGATNFSLLKQAGDVEENPGPTSATMDWIWRILFLVGAATGAHSQLGPYELWELSHGSGSGSGSQLGPYELWELSHSGGGSGQLGPYELWELSHGSSGPGSGSCQFDLSTRRLKCGSGSCQFDLSTRRLKCGSGGGGSGGGGSGGGGSFEQVQLQQPGAELVKPGASVKMSCKASGYAFSSYWINWMKQKPGQGLEWIGQIYPGDGDTNYNGKFKGRATLTADTSSSTAYMQLSSLTSEDSAVYFCARSITTVVGCAMDYWGQGTSVTVSSTRIQNPDPAVYQLRDSKSSDKSVCLFTDFDSQTNVSQSKDSDVYITDKCVLDMRSMDFKSNSAVAWSNKSDFACANAFNNSIIPEDTFFPSPESSCDVKLVEKSFETDTNLNFQNLSVIGFRILLLKVAGFNLLMTLRLWSSRAKRSGSGVKQTLNFDLLKLAGDVESNPGPSRGHMTEYKPTVRLATRDDVPRAVRTLAAAFADYPATRHTVDPDRHIERVTELQELFLTRVGLDIGKVWVADDGAAVAVWTTPESVEAGAVFAEIGPRMAELSGSRLAAQQQMEGLLAPHRPKEPAWFLATVGVSPDHQGKGLGSAVVLPGVEAAERAGVPAFLETSAPRNLPFYERLGFTVTADVEVPEGPRTWCMTRKPGA
B2: 22222 (protein)
chain: MALPVTALLLPLALLLHAARPACPQLGPYELWELSHGTGAVVRGAEFDIQMTQSPSSLSASVGDRVTITCKASDHINNWLAWYQQKPGQAPKLLIYGATTLETGVPSRFSGSGSGTDYTLTISSLQPEDFATYYCQQSWNTPWTFGQGTKLEIKRLEDLKNVFPPEVAVFEPSKAEIAHTQKATLVCLATGFYPDHVELSWWVNGKEVHSGVCTDPQPLKEQPALNDSRYCLSSRLRVSATFWQNPRNHFRCQVQFYGLSENDEWTQDRAKPVTQIVSAEAWGRADCGITSASYHQGVLSATILYEILLGKATLYAVLVSALVLMAMVKRKDSRGRAKRSGSGATNFSLLKQAGDVEENPGPTSATMDWIWRILFLVGAATGAHSGPQVQLQESGGGLAQAGGSLRLSCAASGRTFSMGWFRQAPGKEREFVAAITYSGGSPYYASSVRGRFTISRDNAKNTVYLQMNSLKPEDTAVYYCAANPTYGSDWNAENWGQGTQVTVSSGSGGGGSGGGGSGGGGSFEQVQLQQPGAELVKPGASVKMSCKASGYAFSSYWINWMKQKPGQGLEWIGQIYPGDGDTNYNGKFKGRATLTADTSSSTAYMQLSSLTSEDSAVYFCARSITTVVGCAMDYWGQGTSVTVSSTRIQNPDPAVYQLRDSKSSDKSVCLFTDFDSQTNVSQSKDSDVYITDKCVLDMRSMDFKSNSAVAWSNKSDFACANAFNNSIIPEDTFFPSSDVPCDVKLVEKSFETDTNLNFQNLSVIGFRILLLKVAGFNLLMTLRLWSSRAKRSGSGVKQTLNFDLLKLAGDVESNPGPSRGHMTEYKPTVRLATRDDVPRAVRTLAAAFADYPATRHTVDPDRHIERVTELQELFLTRVGLDIGKVWVADDGAAVAVWTTPESVEAGAVFAEIGPRMAELSGSRLAAQQQMEGLLAPHRPKEPAWFLATVGVSPDHQGKGLGSAVVLPGVEAAERAGVPAFLETSAPRNLPFYERLGFTVTADVEVPEGPRTWCMTRKPGA
B3: 22223 (protein)
chain: MALPVTALLLPLALLLHAARPDIQMTQSPSSLSASVGDRVTITCKASDHINNWLAWYQQKPGQAPKLLIYGATTLETGVPSRFSGSGSGTDYTLTISSLQPEDFATYYCQQSWNTPWTFGQGTKLEIKRLEDLKNVFPPEVAVFEPSEAEISHTQKATLVCLATGFYPDHVELSWWVNGKEVHSGVCTDPQPLKEQPALNDSRYCLSSRLRVSATFWQNPRNHFRCQVQFYGLSENDEWTQDRAKPVTQIVSAEAWGRADCGFTSESYQQGVLSATILYEILLGKATLYAVLVSALVLMAMVKRKDSRGRAKRSGSGATNFSLLKQAGDVEENPGPTSATMDWIWRILFLVGAATGAHSGPQLGPYELWELSHGSGPLGIAGIFEQVQLQQPGAELVKPGASVKMSCKASGYAFSSYWINWMKQKPGQGLEWIGQIYPGDGDTNYNGKFKGRATLTADTSSSTAYMQLSSLTSEDSAVYFCARSITTVVGCAMDYWGQGTSVTVSSTRIQNPDPAVYQLRDSKSSDKSVCLFTDFDSQTNVSQSKDSDVYITDKCVLDMRSMDFKSNSAVAWSNKSDFACANAFNNSIIPEDTFFPSPESSCDVKLVEKSFETDTNLNFQNLSVIGFRILLLKVAGFNLLMTLRLWSSRAKRSGSGVKQTLNFDLLKLAGDVESNPGPSRGHMTEYKPTVRLATRDDVPRAVRTLAAAFADYPATRHTVDPDRHIERVTELQELFLTRVGLDIGKVWVADDGAAVAVWTTPESVEAGAVFAEIGPRMAELSGSRLAAQQQMEGLLAPHRPKEPAWFLATVGVSPDHQGKGLGSAVVLPGVEAAERAGVPAFLETSAPRNLPFYERLGFTVTADVEVPEGPRTWCMTRKPGA
B4: 22228 (protein)
chain: MALPVTALLLPLALLLHAARPDIQMTQSPSSLSASVGDRVTITCKASDHINNWLAWYQQKPGQAPKLLIYGATTLETGVPSRFSGSGSGTDYTLTISSLQPEDFATYYCQQSWNTPWTFGQGTKLEIKRLEDLKNVFPPEVAVFEPSEAEISHTQKATLVCLATGFYPDHVELSWWVNGKEVHSGVCTDPQPLKEQPALNDSRYCLSSRLRVSATFWQNPRNHFRCQVQFYGLSENDEWTQDRAKPVTQIVSAEAWGRADCGFTSESYQQGVLSATILYEILLGKATLYAVLVSALVLMAMVKRKDSRGRAKRSGSGATNFSLLKQAGDVEENPGPTSATMDWIWRILFLVGAATGAHSGPQDKLTQWPKWLEGSGGGGSGGGGSGGGGSFEQVQLQQPGAELVKPGASVKMSCKASGYAFSSYWINWMKQKPGQGLEWIGQIYPGDGDTNYNGKFKGRATLTADTSSSTAYMQLSSLTSEDSAVYFCARSITTVVGCAMDYWGQGTSVTVSSTRIQNPDPAVYQLRDSKSSDKSVCLFTDFDSQTNVSQSKDSDVYITDKCVLDMRSMDFKSNSAVAWSNKSDFACANAFNNSIIPEDTFFPSPESSCDVKLVEKSFETDTNLNFQNLSVIGFRILLLKVAGFNLLMTLRLWSSRAKRSGSGVKQTLNFDLLKLAGDVESNPGPSRGHMTEYKPTVRLATRDDVPRAVRTLAAAFADYPATRHTVDPDRHIERVTELQELFLTRVGLDIGKVWVADDGAAVAVWTTPESVEAGAVFAEIGPRMAELSGSRLAAQQQMEGLLAPHRPKEPAWFLATVGVSPDHQGKGLGSAVVLPGVEAAERAGVPAFLETSAPRNLPFYERLGFTVTADVEVPEGPRTWCMTRKPGA
B5: 22230 (protein)
chain: MALPVTALLLPLALLLHAARPDIQMTQSPSSLSASVGDRVTITCKASDHINNWLAWYQQKPGQAPKLLIYGATTLETGVPSRFSGSGSGTDYTLTISSLQPEDFATYYCQQSWNTPWTFGQGTKLEIKRLEDLKNVFPPEVAVFEPSEAEISHTQKATLVCLATGFYPDHVELSWWVNGKEVHSGVCTDPQPLKEQPALNDSRYCLSSRLRVSATFWQNPRNHFRCQVQFYGLSENDEWTQDRAKPVTQIVSAEAWGRADCGFTSESYQQGVLSATILYEILLGKATLYAVLVSALVLMAMVKRKDSRGRAKRSGSGATNFSLLKQAGDVEENPGPTSATMDWIWRILFLVGAATGAHSGPQDKLTQWPKWLEGGGGSELPTQGTFSNVSTNVSGGGGQDKLTQWPKWLEGGGGSELPTQGTFSNVSTNVSGSGGGGSGGGGSGGGGSFEQVQLQQPGAELVKPGASVKMSCKASGYAFSSYWINWMKQKPGQGLEWIGQIYPGDGDTNYNGKFKGRATLTADTSSSTAYMQLSSLTSEDSAVYFCARSITTVVGCAMDYWGQGTSVTVSSTRIQNPDPAVYQLRDSKSSDKSVCLFTDFDSQTNVSQSKDSDVYITDKCVLDMRSMDFKSNSAVAWSNKSDFACANAFNNSIIPEDTFFPSPESSCDVKLVEKSFETDTNLNFQNLSVIGFRILLLKVAGFNLLMTLRLWSSRAKRSGSGVKQTLNFDLLKLAGDVESNPGPSRGHMTEYKPTVRLATRDDVPRAVRTLAAAFADYPATRHTVDPDRHIERVTELQELFLTRVGLDIGKVWVADDGAAVAVWTTPESVEAGAVFAEIGPRMAELSGSRLAAQQQMEGLLAPHRPKEPAWFLATVGVSPDHQGKGLGSAVVLPGVEAAERAGVPAFLETSAPRNLPFYERLGFTVTADVEVPEGPRTWCMTRKPGA
B6: 22227 (protein)
chain: MALPVTALLLPLALLLHAARPDIQMTQSPSSLSASVGDRVTITCKASDHINNWLAWYQQKPGQAPKLLIYGATTLETGVPSRFSGSGSGTDYTLTISSLQPEDFATYYCQQSWNTPWTFGQGTKLEIKRLEDLKNVFPPEVAVFEPSEAEISHTQKATLVCLATGFYPDHVELSWWVNGKEVHSGVCTDPQPLKEQPALNDSRYCLSSRLRVSATFWQNPRNHFRCQVQFYGLSENDEWTQDRAKPVTQIVSAEAWGRADCGFTSESYQQGVLSATILYEILLGKATLYAVLVSALVLMAMVKRKDSRGRAKRSGSGATNFSLLKQAGDVEENPGPTSATMDWIWRILFLVGAATGAHSGPQLGPYELWELSHGSALRRLLGLFGFEQVQLQQPGAELVKPGASVKMSCKASGYAFSSYWINWMKQKPGQGLEWIGQIYPGDGDTNYNGKFKGRATLTADTSSSTAYMQLSSLTSEDSAVYFCARSITTVVGCAMDYWGQGTSVTVSSTRIQNPDPAVYQLRDSKSSDKSVCLFTDFDSQTNVSQSKDSDVYITDKCVLDMRSMDFKSNSAVAWSNKSDFACANAFNNSIIPEDTFFPSPESSCDVKLVEKSFETDTNLNFQNLSVIGFRILLLKVAGFNLLMTLRLWSSRAKRSGSGVKQTLNFDLLKLAGDVESNPGPSRGHMTEYKPTVRLATRDDVPRAVRTLAAAFADYPATRHTVDPDRHIERVTELQELFLTRVGLDIGKVWVADDGAAVAVWTTPESVEAGAVFAEIGPRMAELSGSRLAAQQQMEGLLAPHRPKEPAWFLATVGVSPDHQGKGLGSAVVLPGVEAAERAGVPAFLETSAPRNLPFYERLGFTVTADVEVPEGPRTWCMTRKPGA

System: RAJI cells
Test: JNG assay, co-culture with RAJI cells
Format: cell-based
Conditions: JNG cells expressing construct, co-culture with Raji
How it was run: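 Jurkat-NFAT-GFP (JNG) cells stably expressing SAR constructs via lentiviral transduction and puromycin/blasticidin selection were cocultured with target cells at E:T ~1:2 for ~4–18 h. NFAT-driven GFP was measured by FACS versus parental JNG cells; scores +/- to 5+ denote ~5–50% GFP-positive cells.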

Molecule	NFAT-GFP ASSAY: Raji
B1	Raji (+/-) (refer to approximately 5%, 10%, 20%, 30%, 40% and 50% GFP positive cells)
B2	Raji (2+) (refer to approximately 5%, 10%, 20%, 30%, 40% and 50% GFP positive cells)
B3	Raji (3+) (refer to approximately 5%, 10%, 20%, 30%, 40% and 50% GFP positive cells)
B4	Raji (2+) (refer to approximately 5%, 10%, 20%, 30%, 40% and 50% GFP positive cells)
B5	4+ (refer to approximately 5%, 10%, 20%, 30%, 40% and 50% GFP positive cells)
B6	Raji (4+) (refer to approximately 5%, 10%, 20%, 30%, 40% and 50% GFP positive cells)
